Test results taken from patent publication US7189694B2, “Inhibitors of autophosphorylation protein kinases” (University of Florida Research Foundation, Inc., priority 2003, dated 2007).
“Also recorded” adds a separate entry of the source.

Tests used:
c-src = target: T1, c-src (Homo sapiens, UniProt P12931); assay: Src kinase assay with substrate peptide (P81 discs); type: biochemical; details: peptide at 50 μM; FIG. 2C
T1 construct: purchased Upstate Biotechnology, Lake Placid, N.Y
Description: (§1) Src kinase activity was performed with a Src substrate peptide (KVEKIGEGTYGVVYK) (SEQ ID NO. 73) using a Src kinase assay kit according to the manufacturer's specifications (Upstate Biotechnology, Lake Placid, N.Y.) according to the manufacturer's specifications. Briefly, Src substrate peptide was incubated in Src kinase buffer (100 mM Tris-HCl [pH 7.2], 125 mM MgCl2, 25 mM MnCl2, 2 mM EGTA, 0.02 mM Na3VO4, and 2 mM dithioreitol), 5 μCi of [^32P]γ-ATP (75 mM MnCl2, 500 μM ATP), recombinant human Src (Upstate Biotechnology, Lake Placid, N.Y.), and Tkip, JAK2 WT peptide, or in the absence of peptide for 10 min at 30° C. Reaction mixtures were spotted on P81 phosphocellulose discs (supplied with kit) to bind phosphorylated Src substrate peptide, washed three times for 5 min with 0.75% phosphoric acid, washed twice with acetone for 1 min, and placed in vials to which 4 ml of ScintiVerse® (Fisher, Pittsburgh, Pa.) was added. The phosphocellulose discs were analyzed using a liquid scintillation counter to measure ^32P-labeled proteins. For comparison with Src, JAK2 was also assayed using the same procedure. The assay was setup as described above for the Src kinase assay. However, reactions were incubated in the presence of 2 mM dithioreitol in the buffer to release JAK2 from the agarose beads. Following the appropriate incubation period reactions were gently centrifuged. […]

JAK2/IFNGR-1 = target: T2, JAK2/IFNGR-1 (Homo sapiens, UniProt O60674); assay: JAK2 kinase assay processed on P81 phosphocellulose discs (32P incorporation); type: biochemical; details: peptide at 50 μM; FIG. 2D
T2 construct: purchased Upstate Biotechnology, Lake Placid, N.Y
Description: as §1

[1] = target: T3, JAK2 WT peptide (JAK2 autophosphorylation site 1001LPQDKEYYKVKEP) (Homo sapiens, UniProt O60674); assay: ELISA binding of biotinylated JAK2 WT peptide to solid-phase peptides
T3 construct: made in house; host or cells: chemical synthesis (Fmoc)
Description: (§2) Binding assays: For ELISA binding assays Tkip and other peptides to be tested were bound to 96-well plates in 0.1 M carbonate binding buffer (pH 9.6) at a final concentration of 3 μg/well (50 μl). Wells were then washed three times with wash buffer containing 0.9% NaCl and 0.05% tween-20 in PBS and blocked with 2% gelatin and 0.05% tween-20 in PBS for 1 h at room temperature. Wells were then washed three times with wash buffer and incubated with various concentrations of biotinylated JAK2 WT peptide and biotinylated P-JAK2 WT peptide for 1 h at room temperature in blocking buffer. Following incubation, wells were washed five times with wash buffer to remove any unbound biotinylated peptides. Bound biotinylated peptides were detected by incubation with a 1:500 dilution of NEUTRAVIDIN biotin binding-protein conjugated with horseradish peroxidase (Molecular Probes, Eugene, Oreg.) in blocking buffer for 1 h at room temperature. Wells were then washed five times with wash buffer and developed with a solution of o-phenylenediamine (OPD) in stable peroxidase buffer (Pierce, Rockford, Ill.). The assay was stopped with the addition of 2 M H2SO4 (50 μl) to each well. Absorbance was measured using a 450 microplate reader (Bio-rad, Hercules, Calif.) at 490 nm. Control experiments were carried out as described above in the absence of immobilized peptides.

recombinant human JAK2 = target: T4, recombinant human JAK2 (Homo sapiens, UniProt O60674); assay: In vitro JAK2 kinase assay (32P, SDS-PAGE, autoradiography); type: biochemical; details: peptide at 50 μM
T4 construct: purchased Upstate Biotechnology, Lake Placid, N.Y
Description: Determination of JAK2 autophosphorylation activity was performed in reaction mixtures containing recombinant human JAK2 immobilized on agarose beads (Upstate Biotechnology, Lake Placid, N.Y.), 1 μCi/μl of [^32P]γ-ATP (Amersham Biosciences, Piscataway, N.J.), and either Tkip or JAK 2 WT peptide incubated in kinase buffer (10 mM HEPES [pH 7.4], 50 mM sodium chloride, 0.1 mM sodium orthovanadate, 5 mM magnesium chloride, 5 mM manganese chloride). JAK2 kinase assays were performed in 35 μL reaction volumes containing 10.5 μL Tkip, 20 μL JAK2 agarose beads, 1 μL sIFNGR-1, and 3.5 μL [^32P]γ-ATP incubated at 30° C. for 30 min with intermittent agitation. […] EGFR, VEGFR, and JAK2 kinase reactions were terminated with the addition of 5 μl 6×SDS sample buffer (0.5 M Tris-HCl [pH 6.8], 36% glycerol, 10% SDS, 9.3% DTT, 0.012% bromophenol blue). Incubation of JAK2 agarose beads in SDS sample buffer (100° C.) was designed to elute bound proteins from the agarose beads. The reaction mixtures were separated on a 10% SDS polyacrilamide gel. Autoradiography was used to determine phosphorylation activity.

[2] = system: experimental allergic encephalomyelitis; assay: Experimental allergic encephalomyelitis (EAE) in MBP-immunized NZW mice; type: in vivo
Description: NZW mice were injected intraperitoneally with PBS or Tkip (63 μg/mouse) every other day starting the day of immunization with myelin basic protein (MBP) for induction of EAE. Mice were followed daily for signs of EAE, and mean severity of paralysis for each group was graded based on the following scale: 1, loss of tail tone, 2, hind leg weakness, 3, paraparesis, 4, paraplegia, 5, moribund, death. […] All mice in the control group had disease (disease incidence=4/4), while one mouse in the Tkip group had disease (disease incidence=1/5).
NZW mice were immunized with myelin basic protein (MBP) (300 ug) emulsified in complete Freund's adjuvant for the induction of experimental allergic encephalomyelitis (EAE). Tkip peptide (63 μg/mouse) was administered to mice every other day starting the day of immunization. Phosphate buffered saline (PBS) was used as the vehicle of transfer and as the control agent for the treatment of the control group. Mice were followed daily for signs of EAE and mean severity of paralysis for each group was graded based on the scale presented in the legend of FIG. 9. […] Furthermore, the mean severity of disease for the control group (2.1) was twice as high as that of the Tkip group (0.8) at its peak. The time of onset of disease for the control group and Tkip-treated group was similar (24 days post immnunization). Thus, treatment of MBP-immunized mice with Tkip peptide protects them from the autoimmune disease, EAE.

[3] = target: T5, p-JAK2 WT peptide (phosphorylated at 1007Y) (Homo sapiens, UniProt O60674); assay: Solid phase binding of biotinylated phosphorylated JAK2 WT peptide to immobilized Tkip; details: FIG. 4
T5 construct: made in house; host or cells: chemical synthesis (Fmoc)
Description: as §2

VEGFR = target: T6, VEGFR (Homo sapiens, UniProt P17948); assay: In vitro VEGFR autophosphorylation kinase assay; type: biochemical; details: peptide at 50 μM; FIG. 2B
T6 construct: purchased Calbiochem, San Diego, Calif
Description: (§3) In vitro Kinase Assays: Autophosphorylation activity of EGFR and VEGFR-1 was measured in a reaction mixture containing kinase buffer (20 mM Tris-HCl [pH 7.5], 2 mM dithioreitol, 50 mM potassium chloride, 0.3 mM sodium orthovanadate, 5 mM magnesium chloride, 10 mM glycerophosphate, 2 mM EGTA, […] manganese chloride), Tkip, substrates, and 5 μCi of [^32P]γ-ATP (specific activity 6000 Ci/mmol; 1 mCi=37 Mbq) (Amersham Biosciences, Piscataway, N.J.). EGFR and VEGFR in vitro kinase assays were carried out in 22.5 μL reaction volumes containing 10 μL Tkip, 2.5 μL substrates, and 10 μL [^32P]γ-ATP incubated at 30° C. for 10 min. EGFR (supplied precomplexed with EGF) was obtained from Upstate Biotechnology (Lake Placid, N.Y.). VEGFR and VEGF were obtained from Calbiochem (San Diego, Calif.) and Peprotech (Rocky Hill, N.J.), respectively.
(§4) Determination of JAK2 autophosphorylation activity was performed in reaction mixtures containing recombinant human JAK2 immobilized on agarose beads (Upstate Biotechnology, Lake Placid, N.Y.), 1 μCi/μl of [^32P]γ-ATP (Amersham Biosciences, Piscataway, N.J.), and either Tkip or JAK 2 WT peptide incubated in kinase buffer (10 mM HEPES [pH 7.4], 50 mM sodium chloride, 0.1 mM sodium orthovanadate, 5 mM magnesium chloride, 5 mM manganese chloride). […]

EGFR = target: T7, EGFR (Homo sapiens, UniProt P00533); assay: In vitro EGFR autophosphorylation kinase assay; type: biochemical; details: peptide at 50 μM; FIG. 2E
T7 construct: human EGFR isolated from A431 cells; purchased Upstate Biotechnology, Lake Placid, N.Y; host or cells: A431 cells (endogenous receptor, isolated)
Description: as §3, §4

T4 sequence (O60674 whole entry): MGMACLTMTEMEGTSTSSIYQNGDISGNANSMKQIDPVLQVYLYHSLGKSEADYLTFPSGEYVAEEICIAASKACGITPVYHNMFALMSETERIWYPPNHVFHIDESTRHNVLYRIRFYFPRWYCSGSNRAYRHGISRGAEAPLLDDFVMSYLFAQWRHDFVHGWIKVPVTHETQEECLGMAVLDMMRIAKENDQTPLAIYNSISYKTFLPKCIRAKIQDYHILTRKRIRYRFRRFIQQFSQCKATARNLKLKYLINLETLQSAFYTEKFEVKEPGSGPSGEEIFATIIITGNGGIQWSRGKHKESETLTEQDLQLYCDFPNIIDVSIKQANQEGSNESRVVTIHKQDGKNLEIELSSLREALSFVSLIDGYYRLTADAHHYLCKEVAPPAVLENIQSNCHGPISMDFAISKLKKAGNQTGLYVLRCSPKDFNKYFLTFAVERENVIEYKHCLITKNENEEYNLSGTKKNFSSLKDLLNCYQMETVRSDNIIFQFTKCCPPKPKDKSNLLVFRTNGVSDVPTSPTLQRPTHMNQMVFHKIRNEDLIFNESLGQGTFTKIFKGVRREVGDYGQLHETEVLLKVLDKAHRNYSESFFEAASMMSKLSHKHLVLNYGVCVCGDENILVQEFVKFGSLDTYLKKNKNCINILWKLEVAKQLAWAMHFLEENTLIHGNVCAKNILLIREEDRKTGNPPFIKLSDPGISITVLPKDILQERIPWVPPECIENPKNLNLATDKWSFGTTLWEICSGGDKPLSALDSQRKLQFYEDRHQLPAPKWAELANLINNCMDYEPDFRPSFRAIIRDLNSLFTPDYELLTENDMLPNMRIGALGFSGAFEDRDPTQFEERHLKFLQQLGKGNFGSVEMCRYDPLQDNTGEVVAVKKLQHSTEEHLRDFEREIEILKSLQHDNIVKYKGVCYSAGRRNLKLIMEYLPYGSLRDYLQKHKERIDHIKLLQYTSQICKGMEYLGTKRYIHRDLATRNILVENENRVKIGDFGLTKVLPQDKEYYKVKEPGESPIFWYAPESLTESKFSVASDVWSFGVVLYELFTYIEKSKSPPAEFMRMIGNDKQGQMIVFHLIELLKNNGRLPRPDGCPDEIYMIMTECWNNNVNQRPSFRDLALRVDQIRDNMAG
T2 sequence (O60674 whole entry): as above
T6 sequence (P17948 27-1338): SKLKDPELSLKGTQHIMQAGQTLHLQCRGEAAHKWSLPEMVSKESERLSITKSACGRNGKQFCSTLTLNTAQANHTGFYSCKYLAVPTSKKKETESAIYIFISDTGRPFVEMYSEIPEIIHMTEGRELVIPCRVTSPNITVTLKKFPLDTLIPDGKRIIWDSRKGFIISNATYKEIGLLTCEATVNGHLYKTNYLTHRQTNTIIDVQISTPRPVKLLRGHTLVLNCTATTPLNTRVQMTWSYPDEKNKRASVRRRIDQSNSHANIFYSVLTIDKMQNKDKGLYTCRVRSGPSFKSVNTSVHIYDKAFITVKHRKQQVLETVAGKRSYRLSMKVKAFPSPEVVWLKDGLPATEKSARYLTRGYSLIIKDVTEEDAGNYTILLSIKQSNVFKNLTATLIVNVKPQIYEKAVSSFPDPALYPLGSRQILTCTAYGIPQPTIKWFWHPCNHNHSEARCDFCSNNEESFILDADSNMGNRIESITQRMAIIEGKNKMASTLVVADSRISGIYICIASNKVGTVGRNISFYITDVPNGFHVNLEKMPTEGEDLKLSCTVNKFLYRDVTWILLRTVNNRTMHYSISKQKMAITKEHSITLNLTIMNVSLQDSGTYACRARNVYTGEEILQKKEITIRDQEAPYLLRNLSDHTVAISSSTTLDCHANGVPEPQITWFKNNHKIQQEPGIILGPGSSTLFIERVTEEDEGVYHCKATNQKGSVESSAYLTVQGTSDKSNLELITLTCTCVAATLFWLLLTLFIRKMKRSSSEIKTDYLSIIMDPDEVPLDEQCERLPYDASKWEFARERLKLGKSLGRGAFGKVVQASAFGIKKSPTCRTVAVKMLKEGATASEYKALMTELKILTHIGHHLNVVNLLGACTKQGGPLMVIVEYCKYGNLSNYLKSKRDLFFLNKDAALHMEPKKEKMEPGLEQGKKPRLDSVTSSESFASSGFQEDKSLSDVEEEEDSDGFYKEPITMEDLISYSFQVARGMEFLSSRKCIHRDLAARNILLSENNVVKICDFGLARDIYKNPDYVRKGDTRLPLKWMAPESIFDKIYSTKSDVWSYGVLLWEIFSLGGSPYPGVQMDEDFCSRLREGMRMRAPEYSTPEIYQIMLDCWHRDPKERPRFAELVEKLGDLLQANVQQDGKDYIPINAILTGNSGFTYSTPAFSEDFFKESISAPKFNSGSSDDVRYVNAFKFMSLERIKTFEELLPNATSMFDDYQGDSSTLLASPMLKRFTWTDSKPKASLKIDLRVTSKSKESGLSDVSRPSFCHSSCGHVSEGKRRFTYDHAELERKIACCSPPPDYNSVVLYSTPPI

Sequence: WLVFFVIFYFFR (amino acid sequence of a peptide that can be used according to the present invention) [Tkip]
- inhibition of c-src phosphorylation of a protein substrate (c-src): failed to inhibit
- inhibition of 32P incorporation into JAK2/IFNGR-1 (JAK2/IFNGR-1): greater than 95%
- binding of biotinylated JAK2 WT peptide to solid-phase peptide ([1]; FIG. 1A, ELISA, peptides coated on 96-well plates): bound only to Tkip peptide in a dose-dependent manner
- binding of Tkip to unphosphorylated JAK2 WT ([1]; FIG. 4, immobilized Tkip): bound both JAK2 WT and p-JAK2 WT in a dose-dependent manner
- inhibition of JAK2 autophosphorylation (recombinant human JAK2): completely inhibited; also recorded: also inhibited
- inhibition of JAK2 phosphorylation of IFNGR-1 (recombinant human JAK2): completely inhibited; also recorded: also inhibited
- time of onset of disease ([2]; 63 μg/mouse every other day): 24 days post immnunization
- mean severity of disease (paralysis scale 1-5) ([2]; 63 μg/mouse every other day, at its peak): 0.8
- incidence of disease (EAE) ([2]; 63 μg/mouse intraperitoneally every other day from day of immunization): 1/5
- fifty percent endpoint concentration, fold lower for p-JAK2 WT binding versus unphosphorylated JAK2 WT binding [3]: approximately 9 fold
- binding of Tkip to p-JAK2 WT ([3]; immobilized Tkip): binding was most efficient to p-JAK2 WT
- inhibition of VEGFR autophosphorylation (VEGFR): did not inhibit
- inhibition of EGFR autophosphorylation (EGFR): completely inhibited
